US20220289850 (published 2022)

T1: mouse integrin avb8 (mouse)
T1 chain 1: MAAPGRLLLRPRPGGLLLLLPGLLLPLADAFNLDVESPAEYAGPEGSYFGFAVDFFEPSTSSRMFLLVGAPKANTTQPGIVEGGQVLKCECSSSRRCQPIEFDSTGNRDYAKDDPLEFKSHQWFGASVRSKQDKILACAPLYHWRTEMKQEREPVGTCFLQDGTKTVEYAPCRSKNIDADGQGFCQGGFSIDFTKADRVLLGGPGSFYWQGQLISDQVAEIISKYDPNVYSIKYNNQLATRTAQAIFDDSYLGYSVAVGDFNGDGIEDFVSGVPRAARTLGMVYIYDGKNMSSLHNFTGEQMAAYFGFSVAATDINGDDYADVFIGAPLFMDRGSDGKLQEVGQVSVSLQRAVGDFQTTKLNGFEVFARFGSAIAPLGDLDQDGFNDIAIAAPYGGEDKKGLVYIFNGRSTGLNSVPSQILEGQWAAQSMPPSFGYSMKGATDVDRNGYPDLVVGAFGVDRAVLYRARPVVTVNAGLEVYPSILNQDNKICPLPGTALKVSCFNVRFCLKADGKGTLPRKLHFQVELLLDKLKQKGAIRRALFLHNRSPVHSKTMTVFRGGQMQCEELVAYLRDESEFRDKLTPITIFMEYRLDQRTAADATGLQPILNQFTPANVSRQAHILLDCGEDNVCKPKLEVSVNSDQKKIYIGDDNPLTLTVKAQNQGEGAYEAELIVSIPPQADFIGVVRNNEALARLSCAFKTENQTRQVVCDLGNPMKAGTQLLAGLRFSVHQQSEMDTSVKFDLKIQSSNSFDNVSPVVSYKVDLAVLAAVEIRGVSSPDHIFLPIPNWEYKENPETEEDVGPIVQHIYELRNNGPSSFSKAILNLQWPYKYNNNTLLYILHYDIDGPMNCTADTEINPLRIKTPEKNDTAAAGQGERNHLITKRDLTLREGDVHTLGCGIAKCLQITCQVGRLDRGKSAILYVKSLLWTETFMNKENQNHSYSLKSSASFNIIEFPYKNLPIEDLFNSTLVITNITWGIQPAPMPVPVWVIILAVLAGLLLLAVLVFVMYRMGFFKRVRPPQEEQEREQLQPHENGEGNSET
T1 chain 2: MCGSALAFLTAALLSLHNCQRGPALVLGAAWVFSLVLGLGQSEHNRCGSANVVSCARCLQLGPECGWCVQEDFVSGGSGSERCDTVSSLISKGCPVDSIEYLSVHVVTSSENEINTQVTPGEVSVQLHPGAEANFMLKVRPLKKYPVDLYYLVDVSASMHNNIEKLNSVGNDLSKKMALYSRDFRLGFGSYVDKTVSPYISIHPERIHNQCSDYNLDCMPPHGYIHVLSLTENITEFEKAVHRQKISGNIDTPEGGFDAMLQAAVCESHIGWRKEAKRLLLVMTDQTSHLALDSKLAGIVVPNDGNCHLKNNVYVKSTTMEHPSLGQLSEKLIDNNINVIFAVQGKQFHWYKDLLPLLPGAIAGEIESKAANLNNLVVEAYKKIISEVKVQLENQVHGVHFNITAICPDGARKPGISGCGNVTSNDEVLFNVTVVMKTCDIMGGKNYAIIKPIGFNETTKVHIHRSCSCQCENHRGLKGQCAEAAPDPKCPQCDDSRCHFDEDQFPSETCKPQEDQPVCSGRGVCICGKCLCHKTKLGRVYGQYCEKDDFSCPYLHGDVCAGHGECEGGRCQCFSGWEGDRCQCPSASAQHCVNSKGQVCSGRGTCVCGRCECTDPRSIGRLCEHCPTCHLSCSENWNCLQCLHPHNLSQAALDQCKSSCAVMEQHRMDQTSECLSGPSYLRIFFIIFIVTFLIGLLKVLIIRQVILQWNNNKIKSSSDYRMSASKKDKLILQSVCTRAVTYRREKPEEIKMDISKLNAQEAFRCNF

B1: ADWA11 2.4 Fab (antibody, V domains shown)
VH: EVQLVESGGGLVQPGGSLRLSCAASGFNIKDYYMNWVRQAPGKGLEWVGWIDPDQGNTIYEPKFQGRFTISADTSKNSAYLQMNSLRAEDTAVYYCARRLLMDYWGQGTLVTVSS
VL: DIQMTQSPSSLSASVGDRVTITCRSTKSLSHFNGNTYLFWYQQKPGKAPKRLIYYMSSLASGVPSRFSGSGSGTDFTLTISSLQPEDFATYYCQQSLEYPFTFGGGTKVEIK
B2: ADWA11 2.4 IgG (antibody)
chain 1: EVQLVESGGGLVQPGGSLRLSCAASGFNIKDYYMNWVRQAPGKGLEWVGWIDPDQGNTIYEPKFQGRFTISADTSKNSAYLQMNSLRAEDTAVYYCARRLLMDYWGQGTLVTVSSASTKGPSVFPLAPSSKSTSGGTAALGCLVKDYFPEPVTVSWNSGALTSGVHTFPAVLQSSGLYSLSSVVTVPSSSLGTQTYICNVNHKPSNTKVDKKVEPKSCDKTHTCPPCPAPEAAGAPSVFLFPPKPKDTLMISRTPEVTCVVVDVSHEDPEVKFNWYVDGVEVHNAKTKPREEQYNSTYRVVSVLTVLHQDWLNGKEYKCKVSNKALPAPIEKTISKAKGQPREPQVYTLPPSREEMTKNQVSLTCLVKGFYPSDIAVEWESNGQPENNYKTTPPVLDSDGSFFLYSKLTVDKSRWQQGNVFSCSVMHEALHNHYTQKSLSLSPGK
chain 2: DIQMTQSPSSLSASVGDRVTITCRSTKSLSHFNGNTYLFWYQQKPGKAPKRLIYYMSSLASGVPSRFSGSGSGTDFTLTISSLQPEDFATYYCQQSLEYPFTFGGGTKVEIKRTVAAPSVFIFPPSDEQLKSGTASVVCLLNNFYPREAKVQWKVDNALQSGNSQESVTEQDSKDSTYSLSSTLTLSKADYEKHKVYACEVTHQGLSSPVTKSFNRGEC

Columns and labels:
mouse integrin avb8 [1] = molecular target: T1, mouse integrin avb8; assay: SPR
mouse integrin avb8 [2] = molecular target: T1, mouse integrin avb8; assay: FACS C8-S cells

Row | Binder | Kd (mouse integrin avb8 [1]) | EC50 (mouse integrin avb8 [2])
1 | B1 | 0.0708 nM | 
2 | B2 |  | 0.145 nM
